Data reported in US20230020406A1 (published 2023).
Ends that are not written are not given here. * marks the point of attachment. Biotin = O=C1N[C@H]2[C@H](CS[C@H]2CCCCC(=O)*)N1

T1: AA111-228 DNA-binding domain of RXR-alpha (UniProt P19793 111-228)
T1 construct: Bought recombinant protein (Abcam), adsorbed to the plate; also called RXRa-DBD
T1 sequence (looked up): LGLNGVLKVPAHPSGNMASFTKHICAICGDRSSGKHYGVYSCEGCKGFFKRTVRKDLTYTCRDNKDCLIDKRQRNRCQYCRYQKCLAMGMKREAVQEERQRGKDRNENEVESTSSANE

B1: immodulator peptide IM6 (peptide)
peptide: Biotin-HRGFYRKRQCRSSQGQRRGPCW
modifications: cysteine pairing not given here; also: complexed with Streptavidin-Alexa 488 conjugate (SA488)
notes: Synthetic peptide; also called 1M6
B2: immodulator peptide IM5 (peptide)
peptide: Biotin-RKGFYKRKQCKPSRGRKRGICW
modifications: cysteine pairing not given here; also: complexed with Streptavidin-Alexa 488 conjugate (SA488)
notes: Synthetic peptide; also called 1M5
B3: immodulator peptide IM3 (peptide)
peptide: Biotin-KKGFYKKKQCRPSKGRKRGFCW
modifications: cysteine pairing not given here; also: complexed with Streptavidin-Alexa 488 conjugate (SA488)
notes: IGFBP-3-derived core; also called 1M3
B4: immodulator peptide IM2 (peptide)
peptide: Biotin-KHGLYNLKQCKMSLNGQRGECW
modifications: cysteine pairing not given here; also: complexed with Streptavidin-Alexa 488 conjugate (SA488)
notes: Synthetic peptide
B5: immodulator peptide IM4 (peptide)
peptide: Biotin-RNGNFHPKQCHPALDGQRGKCW
modifications: cysteine pairing not given here; also: complexed with Streptavidin-Alexa 488 conjugate (SA488)
notes: Synthetic peptide
B6: immodulator peptide IM1 (peptide)
peptide: Biotin-KNGFYHSRQCETSMDGEAGLCW
modifications: cysteine pairing not given here; also: complexed with Streptavidin-Alexa 488 conjugate (SA488)
notes: Synthetic peptide with an IGFBP-derived core

What follows are binders tested against T1, AA111-228 DNA-binding domain of … (assay: plate assay: 1 ug/well RXRa-DBD adsorbed, 800 ng/well SA488-labelled peptide, fluorometer 485/525 nm).
Experimental: Experiment x3A. […] 1 ug/well recombinant RXRa-DBD (Abcam, Cambridge, Mass.) was adsorbed to wells of a 96-well plate for 60 minutes at RT, then blocked with 200 uL 1% BSA in PBS buffer overnight. […] The plate was incubated for 60 min at room temperature, washed and counted in a standard fluorometer (excitation/emission 485/525 nm). Background (buffer alone) was subtracted.
For B1, the Fluorescence was 587 fluorescence units (background subtracted). With B2 the Fluorescence was 6800 fluorescence units (background subtracted). With B3 the Fluorescence was 6570 fluorescence units (background subtracted). In the case of B4, the Fluorescence is reported as 2 fluorescence units (background subtracted). B5 was tested, and the Fluorescence was 27 fluorescence units (background subtracted). In the case of B6, the Fluorescence is reported as 670 fluorescence units (background subtracted).
